Data published in article PMC5159498, “IQGAP1 Interaction with RHO Family Proteins Revisited” (The Journal of Biological Chemistry, 2016).
Numbering of substitutions follows the chain as printed.

How the values were obtained:
Assay in all cases: stopped-flow fluorometry; mGppNHp-bound RHO protein (0.2 μM) rapidly mixed with IQGAP1 variant (2 μM, or 2-12 μM for kon); koff by displacement with 10 μM non-fluorescent GppNHp-bound GTPase; Kd = koff/kon; 30 mM Tris-HCl pH 7.5, 10 mM KH2PO4/K2HPO4, 5 mM MgCl2, 3 mM DTT
Conditions in all cases: both partners purified
[1] = biological target: T1, IQGAP1 GRD1-CT (aa 863-1657) (human, UniProt P46940 863-1657)
T1 construct: human IQGAP1, GRD, RGCT and CT domains, aa 863-1657; The GST tag was cleaved 'if needed'; also called C-terminal half of IQGAP1; C-terminal 795 amino acids of IQGAP1
T1 sequence (looked up): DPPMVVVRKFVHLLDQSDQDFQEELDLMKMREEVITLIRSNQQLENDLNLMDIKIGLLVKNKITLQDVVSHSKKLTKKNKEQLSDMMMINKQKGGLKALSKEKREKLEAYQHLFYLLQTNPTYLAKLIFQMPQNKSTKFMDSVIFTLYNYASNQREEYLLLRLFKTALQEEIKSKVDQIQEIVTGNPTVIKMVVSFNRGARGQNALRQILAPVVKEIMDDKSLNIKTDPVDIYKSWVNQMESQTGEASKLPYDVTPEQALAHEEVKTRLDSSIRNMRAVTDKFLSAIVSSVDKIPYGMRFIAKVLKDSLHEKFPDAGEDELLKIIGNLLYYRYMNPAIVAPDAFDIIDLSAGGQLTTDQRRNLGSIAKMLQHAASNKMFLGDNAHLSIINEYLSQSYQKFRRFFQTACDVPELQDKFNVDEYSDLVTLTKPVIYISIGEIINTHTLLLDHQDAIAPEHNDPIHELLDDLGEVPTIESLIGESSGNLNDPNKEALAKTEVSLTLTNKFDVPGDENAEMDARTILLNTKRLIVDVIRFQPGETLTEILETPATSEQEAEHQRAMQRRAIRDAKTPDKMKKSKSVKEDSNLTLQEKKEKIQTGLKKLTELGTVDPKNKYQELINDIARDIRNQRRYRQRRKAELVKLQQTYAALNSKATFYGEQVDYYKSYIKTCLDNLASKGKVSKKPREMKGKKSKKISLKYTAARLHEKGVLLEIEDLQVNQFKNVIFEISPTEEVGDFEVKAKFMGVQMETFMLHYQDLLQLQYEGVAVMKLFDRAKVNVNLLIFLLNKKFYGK

[2] = biological target: T2, IQGAP1 GRD1-RGCT S1441E (aa 877-1558) (human, UniProt P46940 877-1558, S1441E)
T2 construct: human IQGAP1 aa 877-1558 with the phosphomimetic mutation S1441E, from the vector pET46 EkLIC; source: E. coli (pLysS BL21(DE3), CodonPlusRIL or BL21(Rosetta)), purified (Ni-NTA, gel filtration)
T2 sequence (looked up): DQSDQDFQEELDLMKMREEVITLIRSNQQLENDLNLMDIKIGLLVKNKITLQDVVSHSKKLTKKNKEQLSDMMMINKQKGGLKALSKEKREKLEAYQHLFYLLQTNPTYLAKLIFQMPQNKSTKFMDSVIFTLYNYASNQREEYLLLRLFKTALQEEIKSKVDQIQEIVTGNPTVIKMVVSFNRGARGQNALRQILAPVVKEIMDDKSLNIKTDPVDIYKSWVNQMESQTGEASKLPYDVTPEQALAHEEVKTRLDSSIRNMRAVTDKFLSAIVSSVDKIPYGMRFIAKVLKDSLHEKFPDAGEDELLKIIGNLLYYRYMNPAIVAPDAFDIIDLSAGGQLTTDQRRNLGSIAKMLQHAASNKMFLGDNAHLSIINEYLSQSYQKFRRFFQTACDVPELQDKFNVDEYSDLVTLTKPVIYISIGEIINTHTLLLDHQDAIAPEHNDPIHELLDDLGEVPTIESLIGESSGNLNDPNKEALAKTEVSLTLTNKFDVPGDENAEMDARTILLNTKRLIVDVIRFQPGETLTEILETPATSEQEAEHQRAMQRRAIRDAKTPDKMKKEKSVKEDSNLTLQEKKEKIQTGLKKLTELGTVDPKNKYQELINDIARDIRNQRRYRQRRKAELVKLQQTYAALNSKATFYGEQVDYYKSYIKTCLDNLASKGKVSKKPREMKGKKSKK

[3] = biological target: T3, IQGAP1 GRD1-RGCT S1443E (aa 877-1558) (human, UniProt P46940 877-1558, S1443E)
T3 construct: human IQGAP1 aa 877-1558 with the phosphomimetic mutation S1443E (printed as S1143E in the methods, S1443E everywhere else), from the vector pET46 EkLIC; source: E. coli (pLysS BL21(DE3), CodonPlusRIL or BL21(Rosetta)), purified (Ni-NTA, gel filtration)
T3 sequence (looked up): T2 sequence (looked up) with E565S, S567E

Kd [1]: 300 nM | Kd [2]: 2050 nM | Kd [3]: 7030 nM
B1: CDC42 (aa 1-178) (domain or fragment)
chain: not shown
notes: human CDC42, C-terminally truncated, aa 1-178; Loaded non-covalently with mGppNHp, tGppNHp, mGDP or non-fluorescent GppNHp; the nucleotide is named in the format of each assay; also called CDC42^WT; CDC42-mGppNHp
